# Data from IntAct's records for PubMed 18477474.
# B1: Ras-related protein Rab-38 (Mus musculus), Q8QZZ8 (parent)
# chain: MQTPHKEHLYKLLVIGDLGVGKTSIIKRYVHQNFSSHYRATIGVDFALKVLHWDPETVVRLQLWDIAGQERFGNMTRVYYREAMGAFIVFDVTRPATFEAVAKWKNDLDSKLTLPNGKPVSVVLLANKCDQGKDVLMNNGLKMDQFCKEHGFVGWFETSAKENINIDEASRCLVKHILANECDLLESIEPDIVKPHLTSPKVVSCSGCAKS
# partner: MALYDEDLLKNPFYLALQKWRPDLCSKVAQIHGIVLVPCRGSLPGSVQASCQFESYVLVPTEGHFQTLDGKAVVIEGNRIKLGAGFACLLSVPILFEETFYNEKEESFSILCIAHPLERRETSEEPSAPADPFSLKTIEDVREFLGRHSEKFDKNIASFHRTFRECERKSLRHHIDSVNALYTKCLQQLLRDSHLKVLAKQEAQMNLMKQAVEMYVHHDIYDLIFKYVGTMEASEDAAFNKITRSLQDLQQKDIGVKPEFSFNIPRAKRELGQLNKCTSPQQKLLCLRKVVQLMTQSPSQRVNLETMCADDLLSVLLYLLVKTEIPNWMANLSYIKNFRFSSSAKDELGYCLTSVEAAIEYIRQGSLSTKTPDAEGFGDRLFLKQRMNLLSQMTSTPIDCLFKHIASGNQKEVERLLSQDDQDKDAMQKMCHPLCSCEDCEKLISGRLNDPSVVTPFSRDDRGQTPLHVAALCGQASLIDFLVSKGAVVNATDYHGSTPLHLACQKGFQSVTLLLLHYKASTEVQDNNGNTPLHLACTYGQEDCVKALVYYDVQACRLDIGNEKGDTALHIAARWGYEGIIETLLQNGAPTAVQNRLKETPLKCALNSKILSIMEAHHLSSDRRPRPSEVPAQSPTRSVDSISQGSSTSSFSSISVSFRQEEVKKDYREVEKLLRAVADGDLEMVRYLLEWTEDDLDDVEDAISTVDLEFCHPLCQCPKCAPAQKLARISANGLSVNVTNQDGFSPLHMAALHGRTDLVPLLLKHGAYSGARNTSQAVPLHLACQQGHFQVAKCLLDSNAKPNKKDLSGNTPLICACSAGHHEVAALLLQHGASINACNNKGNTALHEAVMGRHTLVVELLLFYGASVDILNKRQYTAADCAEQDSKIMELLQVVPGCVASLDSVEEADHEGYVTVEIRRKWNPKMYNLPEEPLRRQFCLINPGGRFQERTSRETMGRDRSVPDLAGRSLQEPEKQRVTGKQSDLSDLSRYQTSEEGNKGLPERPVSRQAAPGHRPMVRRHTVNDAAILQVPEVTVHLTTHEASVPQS
# Variants of: B1
# Settings: with anr27_mouse Ankrd27, Q3UMR0
row,effect of a mutation on the interaction,Variant
1,disrupting interaction,MQTPHKEHLYKLLVIGDLGVGKNSIIKRYVHQNFSSHYRATIGVDFALKVLHWDPETVVRLQLWDIAGQERFGNMTRVYYREAMGAFIVFDVTRPATFEAVAKWKNDLDSKLTLPNGKPVSVVLLANKCDQGKDVLMNNGLKMDQFCKEHGFVGWFETSAKENINIDEASRCLVKHILANECDLLESIEPDIVKPHLTSPKVVSCSGCAKS [T23N]
